The record followed here is PMC9728385.

Data set [1] deals with TtCST Ctc1 R395E/Y445A/F473A (Tetrahymena, UniProt A0PGB2;Q6JXI5;D2CVN7;D2CVN8 1-622;1-373;1-164;1-422, R395E;Y445A;F473A). Description: EMSA. (In general: A gel shift assay detects complexes by their altered migration in electrophoresis.)
Data set [2] has as its target TtCST Ctc1 F264A/Y268A (Tetrahymena, UniProt A0PGB2;Q6JXI5;D2CVN7;D2CVN8 1-622;1-373;1-164;1-422, F264A;Y268A). In words: EMSA.

Chain of TtCST Ctc1 R395E/Y445A/F473A (A0PGB2 whole entry R395E/Y445A/F473A, chain 1 of 4): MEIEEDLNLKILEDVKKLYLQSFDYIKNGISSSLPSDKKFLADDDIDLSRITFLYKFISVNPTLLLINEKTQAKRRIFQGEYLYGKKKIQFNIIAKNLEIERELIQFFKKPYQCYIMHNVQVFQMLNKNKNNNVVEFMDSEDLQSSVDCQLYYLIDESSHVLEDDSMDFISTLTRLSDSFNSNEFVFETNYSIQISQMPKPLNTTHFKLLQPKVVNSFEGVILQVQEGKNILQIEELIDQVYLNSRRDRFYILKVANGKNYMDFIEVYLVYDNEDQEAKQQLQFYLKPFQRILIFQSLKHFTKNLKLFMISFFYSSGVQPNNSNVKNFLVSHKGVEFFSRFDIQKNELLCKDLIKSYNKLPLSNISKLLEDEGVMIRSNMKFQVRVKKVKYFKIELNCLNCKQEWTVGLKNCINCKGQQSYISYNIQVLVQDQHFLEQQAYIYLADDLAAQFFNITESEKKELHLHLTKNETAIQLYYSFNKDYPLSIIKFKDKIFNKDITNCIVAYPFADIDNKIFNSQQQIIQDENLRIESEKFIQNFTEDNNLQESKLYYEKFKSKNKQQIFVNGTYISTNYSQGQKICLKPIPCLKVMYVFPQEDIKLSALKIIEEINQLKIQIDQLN
Chain of TtCST Ctc1 R395E/Y445A/F473A (Q6JXI5 whole entry, chain 2 of 4): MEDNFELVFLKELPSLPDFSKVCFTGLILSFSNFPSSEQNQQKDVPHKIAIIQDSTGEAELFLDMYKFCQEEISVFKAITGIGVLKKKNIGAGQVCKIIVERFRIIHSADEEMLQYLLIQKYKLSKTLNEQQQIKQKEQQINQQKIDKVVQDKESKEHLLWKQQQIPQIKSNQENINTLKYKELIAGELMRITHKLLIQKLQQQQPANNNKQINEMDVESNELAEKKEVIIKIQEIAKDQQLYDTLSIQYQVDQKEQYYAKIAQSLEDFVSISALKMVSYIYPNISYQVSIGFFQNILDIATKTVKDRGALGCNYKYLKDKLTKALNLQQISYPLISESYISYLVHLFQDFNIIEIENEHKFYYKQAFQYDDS
Chain of TtCST Ctc1 R395E/Y445A/F473A (D2CVN7 whole entry, chain 3 of 4): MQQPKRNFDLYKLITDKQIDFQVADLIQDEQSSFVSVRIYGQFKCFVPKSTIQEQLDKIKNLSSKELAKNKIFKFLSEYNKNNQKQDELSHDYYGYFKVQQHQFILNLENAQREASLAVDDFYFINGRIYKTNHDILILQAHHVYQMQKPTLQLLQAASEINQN
Chain of TtCST Ctc1 R395E/Y445A/F473A (D2CVN8 whole entry, chain 4 of 4): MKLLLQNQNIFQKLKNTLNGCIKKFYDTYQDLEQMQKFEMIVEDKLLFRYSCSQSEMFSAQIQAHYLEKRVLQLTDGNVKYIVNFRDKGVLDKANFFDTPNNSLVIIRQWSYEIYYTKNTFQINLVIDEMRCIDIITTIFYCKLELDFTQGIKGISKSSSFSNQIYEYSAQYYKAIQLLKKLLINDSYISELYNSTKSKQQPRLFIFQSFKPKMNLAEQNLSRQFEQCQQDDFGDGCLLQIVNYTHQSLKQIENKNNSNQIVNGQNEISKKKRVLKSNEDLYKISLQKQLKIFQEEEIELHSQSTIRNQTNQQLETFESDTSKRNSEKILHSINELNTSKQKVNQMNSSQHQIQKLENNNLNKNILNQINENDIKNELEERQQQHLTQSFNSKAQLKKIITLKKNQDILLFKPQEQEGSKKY
Chain of TtCST Ctc1 F264A/Y268A (A0PGB2 whole entry F264A/Y268A, chain 1 of 4): as the sequence (A0PGB2 whole entry R395E/Y445A/F473A, chain 1 of 4) above, with F264A, Y268A, E395R, A445Y, A473F counted along it
Chain of TtCST Ctc1 F264A/Y268A (Q6JXI5 whole entry, chain 2 of 4): as the sequence (Q6JXI5 whole entry, chain 2 of 4) above
Chain of TtCST Ctc1 F264A/Y268A (D2CVN7 whole entry, chain 3 of 4): as the sequence (D2CVN7 whole entry, chain 3 of 4) above
Chain of TtCST Ctc1 F264A/Y268A (D2CVN8 whole entry, chain 4 of 4): as the sequence (D2CVN8 whole entry, chain 4 of 4) above

Turning to GTTGGGGTTGGGGTTGGGGTTGGGGTTGGG (ssDNA) [d(GTTGGG)5], the Kd (in general, a measure of binding affinity in units of concentration) in data set [1] is 520 nM. Also, the binding signal in data set [2] came to 1.2 fold weaker Kd than WT.
